What was measured:
[1] = target: phosphorylated p58.2.1 peptide (N-terminal KIR ITIM) (human); assay: SPR (BIAcore), phosphopeptide on streptavidin chip, GST fusion injected
[2] = target: phosphorylated p58.2.2 peptide (C-terminal KIR ITIM) (human); assay: as above
phosphorylated p58.2.2 peptide (C-terminal KIR ITIM) (human), sequence (peptide, as listed by the source): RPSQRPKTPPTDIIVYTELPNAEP

Row | Kd [1] | koff [1] | kon [1] | Kd [2] | koff [2] | kon [2] | Substance
1 | 137 nM | 0.0007 s⁻¹ | 5000 M⁻¹ s⁻¹ | 545 nM | 0.0003 s⁻¹ | 600 M⁻¹ s⁻¹ | GST-SHP-1.SH2(C) fusion protein (from UniProt P29351 107-217)
2 | 423 nM | 0.042 s⁻¹ | 100000 M⁻¹ s⁻¹ | 3160 nM | 0.025 s⁻¹ | 8000 M⁻¹ s⁻¹ | GST-SHP-1.SH2(N) fusion protein (from UniProt P29351 1-106)

Reference: patent US20040038894A1, “Compounds for modulating cell negative regulations and biological applications thereof” (INSTITUT NATIONAL DE LA SANTE ET DE LA RECHERCHE MEDICALE …, priority 1996, published 2004)
